Target: Slit-N fused to alkaline phosphatase (Drosophila)
Test: alkaline phosphatase fusion binding assay on beads

Kd: 22.2 ± 2.85 nM
B1: Dscam1 EC4 fused to Fc (Fc fusion)
chain: ANPPDADQKGPVFLKEPTNRIDFSNSTGAEIECKASGNPMPEIIWIRSDGTAVGDVPGLRQISSDGKLVFPPFRAEDYRQEVHAQVYACLARNQFGSIISRDVHVRAVVAQYYEADVNKEHVIRGNSAVIKCLIPSFVADFVEVVSWHTDEEENYFPGAEYDGKYLVLPSGELHIREVGPEDGYKSYQCRTKHRLTGETRLSATKGRLVITEPVSSSPPKINALTYKPNIVESMASTAILCPAQGYPAPSFRWYKFIEGTTRKQAVVLNDRVKQVSGTLIIKDAVVEDSGKYLCVVNNSVGGESVETVLTVTAPLSAKIDPPTQTVDFGRPAVFTCQYTGNPIKTVSWMKDGKAIGHSEPVLRIESVKKEDKGMYQCFVRNDQESAEASAELK

Source: paper PMC4699798 (Cell, 2015)
